Laboratory results: article PMC12846365

What was measured:
[1] = target: 48d.cl IC, 3 plasmid version (Fab-Fab-crosslinked, K126C) (HIV-1 strain BG505); test: native gel or EMSA
[2] = target: 48d.cl IC, fusion version (gpCore + 48d heavy chain fusion, Fab-Fab-crosslinked K126C) (HIV-1 strain BG505); test: native gel or EMSA

| Substance | stoichiometry N [1] | stoichiometry N [2] |
| --- | --- | --- |
| wtVRC01 (antibody) | 1 | 1 |
| wtA32 (antibody) | 2 | 2 |
